Assay results reported in patent publication US20040176573A1.
Read-outs that look alike come from different tables or passages of the source.

Legend:
HLA-A2 (human) [1] = molecular target: HLA-A2 (human)
HLA-A2 (human) [2] = molecular target: HLA-A2 (human); remark: listed apart in the source

“HIV-1 pol476-484 (peptide; other documents disagree on this pair)” was tested, and the C50 (HLA-A2 (human) [1]) was 0.2 µM and the C50 (HLA-A2 (human) [2]) was 0.7 µM.
